The results in this text go back to PMC11087588, “Genetic and functional diversity of β-N-acetylgalactosamine-targeting glycosidases expanded by deep-sea metagenome analysis” (Nature Communications, 2024).

One may read the Km as the substrate concentration at which the rate is half of its maximum. The term kcat denotes the number of substrate molecules converted per active site and unit of time at saturation.

For data set [1], the target named is T1, NgaLy (Lacticaseibacillus yichunensis, UniProt A0ABW4CMK8, W431A).
T1 construct: gene ACFQ47_05640; synthetic gene, pET-47b(+), E. coli BL21 Star (DE3); His tag cut with HRV3C; monomer; DE motif D327/E328
T1 sequence (A0ABW4CMK8 entry or part of it W431A): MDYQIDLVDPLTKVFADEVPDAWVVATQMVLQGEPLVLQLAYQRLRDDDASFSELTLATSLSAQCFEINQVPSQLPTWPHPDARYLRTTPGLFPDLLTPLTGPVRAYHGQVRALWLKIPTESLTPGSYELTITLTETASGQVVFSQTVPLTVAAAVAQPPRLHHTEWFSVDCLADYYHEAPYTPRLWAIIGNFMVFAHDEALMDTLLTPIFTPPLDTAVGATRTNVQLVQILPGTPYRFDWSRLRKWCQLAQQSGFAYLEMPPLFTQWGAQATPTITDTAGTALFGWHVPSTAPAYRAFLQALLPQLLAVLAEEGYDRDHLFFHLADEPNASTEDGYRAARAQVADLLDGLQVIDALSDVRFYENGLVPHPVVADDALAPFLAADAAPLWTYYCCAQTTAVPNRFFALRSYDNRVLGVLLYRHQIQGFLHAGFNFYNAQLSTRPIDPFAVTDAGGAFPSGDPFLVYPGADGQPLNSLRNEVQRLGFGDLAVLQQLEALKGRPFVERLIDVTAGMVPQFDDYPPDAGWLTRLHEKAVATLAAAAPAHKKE
Briefly: relative activity versus wild type. The format is biochemical. Conditions: substrate taken from the standard assay (Assay I).

In data set [2] the target is T2, NgaLy (Lacticaseibacillus yichunensis, UniProt A0ABW4CMK8, Y392A).
T2 construct: gene ACFQ47_05640; synthetic gene, pET-47b(+), E. coli BL21 Star (DE3); His tag cut with HRV3C; monomer; DE motif D327/E328
T2 sequence (A0ABW4CMK8 entry or part of it Y392A): as the sequence (A0ABW4CMK8 entry or part of it W431A) above, with Y392A, A431W counted along it
The data set can be described thus: relative activity versus wild type. The format is biochemical. The conditions noted are these: substrate taken from the standard assay (Assay I).

Substrate in data set [3]: CC(=O)N[C@H]1[C@H](Oc2ccc([N+](=O)[O-])cc2)O[C@H](CO)[C@H](O)[C@@H]1O
The data set can be described thus: purified protein. The conditions noted are these: citrate pH 6.5, 70 °C (optimum), apparent, not saturated up to 2 mM. The format is biochemical, Bathyarchaeia (SeqCode).

Substrate in data set [4]: CC(=O)N[C@H]1[C@H](Oc2ccc([N+](=O)[O-])cc2)O[C@H](CO)[C@H](O)[C@@H]1O
The data set can be described thus: purified protein. The format is biochemical, Lacticaseibacillus yichunensis. Conditions: HEPES pH 7.0, 40 °C (optimum), apparent, not saturated up to 2 mM.

Substrate in data set [5]: CC(=O)N[C@H]1[C@H](Oc2ccc([N+](=O)[O-])cc2)O[C@H](CO)[C@H](O)[C@@H]1O[C@@H]1O[C@H](CO)[C@H](O)[C@H](O)[C@H]1O
Briefly: purified protein. The format is biochemical, Cohnella abietis. Conditions: citrate pH 5.0, 25 °C (optimum), apparent, not saturated up to 2 mM.

Substrate in data set [6]: CC(=O)N[C@H]1[C@H](Oc2ccc([N+](=O)[O-])cc2)O[C@H](CO)[C@H](O)[C@@H]1O
The data set can be described thus: purified protein. The conditions noted are these: citrate pH 5.0, 40 °C (optimum), apparent, not saturated up to 2 mM. The format is biochemical, Arabidopsis thaliana.

Substrate in data set [7]: CC(=O)N[C@H]1[C@H](Oc2ccc([N+](=O)[O-])cc2)O[C@H](CO)[C@H](O)[C@@H]1O
The data set can be described thus: purified protein. The conditions noted are these: citrate pH 5.5, 40 °C (optimum), apparent, not saturated up to 2 mM. The format is biochemical, Paenibacillus sp. TS12.

Substrate in data set [8]: CC(=O)N[C@H]1[C@H](Oc2ccc([N+](=O)[O-])cc2)O[C@H](CO)[C@H](O)[C@@H]1O
The data set can be described thus: purified protein. The format is biochemical, Brachybacterium faecium. The conditions noted are these: citrate pH 6.5, 35 °C (optimum), apparent, not saturated up to 2 mM.

In the case of `CC(=O)N[C@H]1[C@H](Oc2ccc([N+](=O)[O-])cc2)O[C@H](CO)[C@H](O)[C@@H]1O` [GalNAc-β-pNP], the “relative activity versus wild type” value was “The Y392A and W431A mutants were purified as soluble enzymes” at NgaLy [1]; “The Y392A and W431A mutants were purified as soluble enzymes” on NgaLy [2].

B1: NgaBa (Bathyarchaeia (SeqCode)) (protein)
chain: MSRFDVWVQDSLTKVFRDSPKPEDAIKDVVLDAVRNEYEAAQIVVHPLEDVERLEVRVTSLRHESDEYAITRVYPRFVGYVPVKRNTPDTPPEELVRKAPGMFPDPLLEEETVRVKKGENQPVWLTVYVPKDAPPGTYHGEVLIRADGDETRVKTCLRVHDVILPDERNLKLSNFLSPHNISKFHGVELWSEDFWRLLKAYARNMAEHRQSSIITPILELTRIYKGDDRLEFDFRLLDRWINLFKEEGVIGTVEGGYLAGRPPRTVEGWWTVSEFLSRRYRVFNKDGSLAYVQEPVKVSSPVFEEFISQFMPALQAHLDELGLLDSYVQHLADEPIDANAESYKHIAGLVRKYAPKIRIIEASTCKRLVDYIDVLVPLLDDYDKNMSFYEERKRRGNEVWFYTCLAPTGRYPNRLIDYSLVKVRILHWINFKYGLVGYLHWGYNYWTEKPFEDVENEPSHPFPLPPGDPFIVYPGKSGPLDSIRFEALRDGVEDYELFKLLAERKGLDEAVGLCSLAVKTITDYVRSSGELLSIRLRLINELESLG
notes: synthetic gene, pET-47b(+), E. coli BL21 Star (DE3); His tag cut with HRV3C; monomer
Take B1: in “purified protein [3]”, the Michaelis constant (Km) was 3900 ± 1000 µM and the kcat was found to be 510 ± 50 s⁻¹.

B2: NgaLy (Lacticaseibacillus yichunensis) (protein)
chain: MDYQIDLVDPLTKVFADEVPDAWVVATQMVLQGEPLVLQLAYQRLRDDDASFSELTLATSLSAQCFEINQVPSQLPTWPHPDARYLRTTPGLFPDLLTPLTGPVRAYHGQVRALWLKIPTESLTPGSYELTITLTETASGQVVFSQTVPLTVAAAVAQPPRLHHTEWFSVDCLADYYHEAPYTPRLWAIIGNFMVFAHDEALMDTLLTPIFTPPLDTAVGATRTNVQLVQILPGTPYRFDWSRLRKWCQLAQQSGFAYLEMPPLFTQWGAQATPTITDTAGTALFGWHVPSTAPAYRAFLQALLPQLLAVLAEEGYDRDHLFFHLADEPNASTEDGYRAARAQVADLLDGLQVIDALSDVRFYENGLVPHPVVADDALAPFLAADAAPLWTYYCCAQTTAVPNRFFALRSYDNRVLGVLLYRHQIQGFLHWGFNFYNAQLSTRPIDPFAVTDAGGAFPSGDPFLVYPGADGQPLNSLRNEVQRLGFGDLAVLQQLEALKGRPFVERLIDVTAGMVPQFDDYPPDAGWLTRLHEKAVATLAAAAPAHKKE
notes: synthetic gene, pET-47b(+), E. coli BL21 Star (DE3); His tag cut with HRV3C; monomer; DE motif D327/E328
With B2, in the data set “purified protein [4]”, the Michaelis constant (Km) was found to be 1000 ± 50 µM and the kcat was 480 ± 10 s⁻¹.

B3: NgaCa (Cohnella abietis) (protein)
chain: MANTQKTLSLSVWTASSQERVRQDDPAGESLNIELFAARGEYESFQVALKAPEGEHRNVHFVVSDLKGTGDSFISKSNLTLYREHYVYISESSPQRGTVLPEGPGWYPDALIPFIDPATNEPPSGGELIAVPFALENNSNQVIWVDIQVPRDAEAGHYSGSYIVSSEHGEVTGQISLTVWNFELPLKPSLKSTFLIWSSRKKSTVEELLKHKLMCQQWNLSEEEKGAAPTSEGEWIEKYGVNCSGLGFWSKADTFNGVMPPPPTVEEIQAAASAHPSNLFLYNYTADEIGHYTSLYEPIKAWARNLHEAGVANLITMAPVPELYDDGSGSGRSAVDIWVILPLQYDKDRIQEVLAKGDEVWSYNCCVQDDYSPKWQIDFNPIEYRIQPGFINQSLGMTGILYWRVDFWTEDPWHDVLTLRADGMEFNGEGMLVYPGEQVGIDGVVPSIRLKAIRKGIEDYEYIEILKNLGHEQWALEISQSVGPDWHNWTKDHHKLEWARKQLGERINDLMTK
notes: as for B1
On to B3, for which, in the data set “purified protein [5]”, the Km was found to be 11000 ± 3000 µM and the turnover number (kcat) was 1.2 ± 0.3 s⁻¹.

B4: NgaAt (Arabidopsis thaliana) (protein)
chain: MDNNVSQEMTVPVEGVAGGGTAYGFNDAEPLKQSTDPSEVPTADLVNVWCMPNTVNVGSQETPRALEPINLLAARNERESFQIAMRPKVSWAASSPSGIVQVQCSDLCSSAGDRLVVGQSLKLRRVVPVLGVPDALVPLDLPVSQLSLFPGETSVIWVSIDVPTGQPPGQYEGEIIISAMKTDGGGSSHLAKHEKDQLCVELNTCLDIMEPIEGKPMDEVVERIKCASSSLRRILFSPSFSEFISTNGSTDMMEEDVVSNLSLRIKLRLTVWEFIIPVTPSLPAVIGVSDTVIEDRFAVEHGSEDWYKKLDLHFKWLLQYRISPYFCKWGESMRVLTYTSPWPADHPKSDEYLSDSRLAAYAVPYRQVIAGDDSRESYLRKEVEILRSKPHWNKAYFYLWDEPLNMEHFDNVRKMASEIYAYAPDSRVLTTYYCGPGDAPLAPTPFESFVKVPNLLRPYTQIYCTSEWVLGNREDLVKDILDELQTENGEEWWTYICLGPSDPHPNWHLGMRGTQQRAVMWRVWKEGGTGFLYWGANCYEKATVPSAEVKFRRGLPPGDGVLYYPGEVFSSSSEPVASLRLERLLSGLQDYEYLKLYESKYGREEAMGLLEKTGVYTGPERYTLEHRPIDVLRGEVYNTCRPS
notes: synthetic gene, pET-47b(+), E. coli BL21 Star (DE3); His tag cut with HRV3C; monomer; extra N-terminal domain of ~80 residues disordered in crystal
On to B4, for which, in the data set “purified protein [6]”, the Km amounted to 12000 ± 5000 µM and the kcat was 8 ± 3 s⁻¹.

B5: NgaP2 (Paenibacillus sp. TS12) (protein)
chain: LIRWSQVDEEGDTIMLEELPDFETRCLSSLSKVFADAELHDLPVNTGSAMWKEVFSFQVAYRSPQLIKSLKISAESELEPYLAIRAVGLSPSELPVFPNPDEGYIRTAPGLYPDPLYPLADGVHAVPNQWRSVWVTVSLPSMSEFIPAADIGAESVSFPIDLCFEDGKGNHLGAEKFALEIIFQELPEQTLLHTEWFHSDCIATQYKVEVFSEAHWKLIESYVHNAVNHGVNMLLTPLFTPPLDTYVGGERPTVQLIDVEITGVNEYRFKFDRLERWVEMCQRLGIQFIEFSHLFTQWGAKYAPKIIAKKDGEEKRIFGWDTEASGESYSLFLDQFLPQLVHFIRNHHLDDKVFFHVSDEPGMKHAESYRQASDILNKHLAGFSILDALSDYDFYEKGLVQIPVPSNDQIEPFIEHGVEPLWTYYCCGQDHHVSNRFFSLSSPRNRVLGAQLYKFGVQGFLHWGFNFWYSQYSKKVIDPFKVTDADCAFPSGDPFVVYPGADGPLDSIRWEVFREGLQDLRALKLLEALAGREKTLALLEQNLREELTFKSFPDDIEWLLSTREKINRAIKDAYRADR
notes: cloned from genomic DNA, pET-47b(+), E. coli BL21 Star (DE3); His tag cut with HRV3C; monomer; not the GH123 NgaP of the same strain
For B5, in “purified protein [7]”, the Michaelis constant (Km) was 360 ± 30 µM and the kcat was 28 ± 0.6 s⁻¹.

B6: NgaBf (Brachybacterium faecium DSM 4810) (protein)
chain: MQTVLTDSLEKVLGESAPRPAAPIGGAHASGFLGEVLSVQVALRAEEGEAPDPRSAEHAALRVRLGGEIADSARVHAVRRVPVSSPAPAEADEHYLATAPGEYPDLLEPLGGEEVRVGRGLWEALWIDVIDAPPGEHTLTLALTDTTGEQVLAEHAVQLRVHPHQLPPLSITNTHWFHADSLSTYYDVEVLSPQHWELIEAFLASAREMDVTSVLTPTWTPPLDTAEGHTRPFVQLIGIREEEGEYSFDLSALDRWLEICGRLGFTGIEIAHLFTQWGARSTPAIQVETGSGLEHRFGWHVPATSPEYRRLLEALIPVLRAHLEEHWDGQVLWHISDEPHEDQLDSYRAAKEQVADLLEGAQVVDALSSLAFAEQGVVDTPIVATSHVGPFLEAGRRPWVYYCVSQNRDVANRFIAQPSVRNRVLGRQLFAFDAPGFLHWGYNFWWAQFSLRPIDPFEETCAGGPFFGGDSFAVYPGPEGTPWLSLRHRVFAQAMADHRALTWLAELTDRPSAVALVDEGGTLTYSSFSYDVHAHLEARHAVDERIRAALAA
notes: as for B1
Take B6: in “purified protein [8]”, the Km was found to be 1000 ± 70 µM and the kcat amounted to 170 ± 5 s⁻¹.
